Measured values published in US20080081047A1 (published 2008).

Tests used:
SARS-HCoV spike protein [1] = molecular target: T1, SARS-HCoV spike protein (SARS-coronavirus (Tor-3 strain), UniProt P59594 14-1255); assay: ELISA, native gradient purified virus coated at 32 ng/well
SARS-HCoV spike protein [2] = molecular target: T1, SARS-HCoV spike protein; assay: ELISA, OD on native virus against OD on heat-denatured virus
SARS-HCoV spike protein [3] = molecular target: T1, SARS-HCoV spike protein; assay: ELISA, virus heated 100 C 10 min, coated at 32 ng/well

Binder | ELISA OD 405 nm, Viral Lysate (native) (SARS-HCoV spike protein [1]) [OD 405 nm] | O.D. Reduction, Fold (SARS-HCoV spike protein [2]) [fold] | O.D. Reduction, Percent (SARS-HCoV spike protein [2]) [%] | ELISA OD 405 nm, Denatured Lysate (SARS-HCoV spike protein [3]) [OD 405 nm]
F26G6 (antibody, V domains shown) VH: QVQLQQPGAELVKPGASVKVSCKASGYTFTNYWIHWVKQRPGQGLEWIGEINPGNGRTNYNGNFMNKATLTVDKSSNTAYMQLSSLTSEDSAVYHCARLDYWGQGTTLTVSS VL: ELVMTQSPASLSVATGKKVTIRCISSTDIDDDMNWYQQKAGKPPKLLISEGNIFSPGVPSRFSSSGNGTDFVFTVENTLSEDVADNYCLQSDNMPFTFGSGTKLGIKR | 1.6 | 2.7 | 62 | 0.6
F26G8 (antibody, V domains shown) VH: VQLLESGAELVKPGASVKVSCKASGYTFTSYWIHWVKQRPGQGLEWIGEINPSNGRTNYNGNFESKATLTVDKSSNTAYMHLSSLTYEDSAVYHCTRLDYWGQGTTLTVSS VL: ELVMTQSPASLSVITGKKVTIRCISNTDIDDDLNWSQLKAGEPPKLLISEGNIFSPGVPSRFSSSGNGTDFVFTIENTLSEDVANNYCFQSDNMPFTFGSGTKLEIKR | 1.41 | 2.8 | 29 | 0.497
F26G19 (antibody, V domains shown) VH: EVQLEESGTVLARPGASVKMSCKASGYTFTTYRMHWIKQRPGQGLEWIGAIYPGNSDTTYNQKFKDKAKLTAVTSTSSAYMELSSLTNEDSAVYFCTREGIPQLLRTLDYWGQGTSVTVSS VL: DILMTQSPSSLSASLGERVSLTCRASQEISGYLSWLQEKPDGTIKRLIYAASTLDSGVPKRFSGSRSGSDYSLTISSLESEDFADYYCLQYVSYPWTFGGGTKLEIKR | 1.5 | 6 | 83 | 0.253
F26G18 (antibody, V domains shown) VH: LVQLEESGTVLPRPGASVKMSCKASGYTFTSYWMHWVKQRPGQGLEWIGAIYPGNSDTNYNQKFKGRATLTAVTSTSTASMELSSLTNEDSAVYYCTRDGYGSLYYYAMDFWGQGTSVTVSS VL: ELVMTQSPSSLSASLGDRVTISCRASQDISNYLNWYQQKPDGTVKLLIYYTSRLHAGVPSRFSGSGSGTDYSLTISNLEQEDIATYFCQQGYTLPYTFGGGTKLEIKR | 1.81 | 3.6 | 72 | 0.501
